The test system of one data set is U87 glioma cells. Put plainly: Matrigel cell invasion, U87 glioma cells. The data set is classed as cell-based, human. The following applies: mAb 2 μg, 6 h. As to the method:
(§1) Cell invasion. Matrigel invasion assay was performed using modified Boyden chambers with polycarbonate Nucleopore membrane (Corning, Corning, N.Y.), essentially as described (17). Briefly, filters (6.5 mm in diameter, 8 μm pore-size) were coated with Matrigel (30 μl); Cells (2×10^5) in 100 μl of serum-free medium were seeded in triplicate on the upper part of each chamber, and the lower compartment was filled with 600 μl medium supplemented with 10% FCS. After incubation for 5 h at 37° C. in a 5% CO2 incubator, non-invading cells on the upper surface of the filter were wiped with a cotton swab, and migrated cells on the lower surface of the filter were fixed, stained with 0.5% crystal violet (Sigma) and counted by examination of at least seven microscopic fields.
(§2) FIG. 5A. Cell invasion. Cal-27 tongue carcinoma (left panels) and U87 glioma cells (right panels) (2×10^5) were plated onto Matrigel-coated filters in the presence of mouse IgM/IgG (upper panels), mAb 9E8 (2 μg; second left and middle panels). Invading cells adhering to the lower side of the membrane were visualized after 6 h. […] Lungs were harvested after 18 days, photographed (lower panel) and the number of metastatic lesions was counted (upper panel; p=0.001, 0.0006, 0.0001 for Con vs. Ab 1453, Con vs. mAb 9E8 and Con vs. SST0001, respectively). […]

The test system of another data set is Mouse B16 melanoma cells. In words: B16 melanoma experimental lung metastasis. The data set is classed as in vivo. The settings on record: C57Bl/6 mice, given with the cells: Ab #1453 250 μg, mAb 9E8 500 μg, SST0001 400 μg; lungs after 18 days. On the procedure:
(§3) Experimental metastasis. B16 BL6 mouse melanoma (2×10^5) or LM2-4 human breast cancer cells (2×10^6) were injected into the tail vein of C57/BL mice or SCID/Beige mice (respectively) together with the indicated compound, essentially as described (Hostettler N, et al. 2007, FASEB J 21(13):3562-3572). Lungs were harvested 18 days thereafter and metastases occurrence was determined following fixation by gross inspection and histology (Weissmann et al, 2016, Proc Natl Acad Sci USA 113:704-709).
(§4) FIG. 5A. Cell invasion. Cal-27 tongue carcinoma (left panels) and U87 glioma cells (right panels) (2×10^5) were plated onto Matrigel-coated filters in the presence of mouse IgM/IgG (upper panels), mAb 9E8 (2 μg; second left and middle panels). Invading cells adhering to the lower side of the membrane were visualized after 6 h. The number of invading cells per high power field is shown graphically at the lower panels. FIG. 5B, FIG. 5C. Tumor metastasis. FIG. 5B Mouse B16 melanoma cells (2×10^5) were inoculated into the tail vein of C57Bl/6 mice (n=7) together with rabbit IgG (300 μg; Con), Ab #1453 (250 μg), mAb 9E8 (500 μg) or SST0001 (400 μg). Lungs were harvested after 18 days, photographed (lower panel) and the number of metastatic lesions was counted (upper panel; p=0.001, 0.0006, 0.0001 for Con vs. Ab 1453, Con vs. mAb 9E8 and Con vs. SST0001, respectively). […]

The next data set relates to lymphoma cells. In words: Lymphoma cell death, propidium iodide FACS. The data set is classed as cell-based. The following applies: 50 μg/ml, 24 h. On the procedure:
FIG. 6A. CAG myeloma. NOD/SCID mice (n=5) were inoculated (iv) with CAG-luciferase cells (5×10^6) and mice were treated with mAb 9E8 (600 μg/mouse every other day). Tumor growth was evaluated by IVIS imaging (left panels). Quantification of luciferase signals is shown graphically in the right panel. Note 2-3 fold decrease in tumor growth by the heparanase-neutralizing mAbs. FIG. 6B. Bone marrow was harvested from C57Bl/6 mice, cells were collected by centrifugation and heparanase activity was determined as described under ‘Materials and Methods’ (left panel). Corresponding bones were fixed in formalin and following de-calcification were subjected to immunostaining applying anti-heparanase antibody (right panel). FIG. 6C. The indicated cell line (0.25×10^6) was treated with antibodies 1453or 9E8 (50 μg/ml) for 24 h. Cells were then washed once with FACS buffer (PBS containing 2% FCS), incubated with Propidium Iodide (PI; 1 μg/ml) for 10 min and analyzed using FACS Cyan ADP system (Beckman Coulter, Inc). PI-positivity indicates a disturbed membrane and cell death.

In a further data set the test system is Cal-27 tongue carcinoma. In words: Matrigel cell invasion, Cal-27 tongue carcinoma cells. The settings on record: Cal-27 cells, mAb 2 μg, 6 h. Type of data set: cell-based, human. As to the method:
as §1, §2

The subject of the next data set is CAG myeloma cells. Put plainly: CAG-luciferase myeloma, tail vein inoculation, tumor burden by IVIS imaging. The following applies: mAb 600 μg/mouse every other day. Type of data set: in vivo, human. On the procedure:
Tumorigenicity. Luciferase-labelled CAG myeloma (5×10^6) or Raji lymphoma (1×10^6) cells were injected into the tail vein of NOD/SCID mice (n=5). Mice were treated with PG545 (20 mg/kg, once weekly), mAb 9E8 (600 μg/mouse) every other day starting one day following cell inoculation and tumor growth was examined by IVIS imaging. At termination, mice were sacrificed, the backbones were excised, fixed in formalin and following de-calcification with 10% EDTA solution were embedded in paraffin and subjected to histological and immunohistochemical analyses essentially as described (Weissmann et al, 2016, Proc Natl Acad Sci USA 113:704-709). […]
IVIS imaging. […] Light emitted from the bioluminescent cells was detected by the IVIS camera system with images quantified for tumor burden using a log-scale color range set at 5×10^4 to 1×10^7 and measurement of total photon counts per second (PPS) using Living Image software (Xenogen) (Weissmann et al, 2016, Proc Natl Acad Sci USA 113:704-709).
FIG. 6A. […] Tumor growth was evaluated by IVIS imaging (left panels). Quantification of luciferase signals is shown graphically in the right panel. […] Bone marrow was harvested from C57Bl/6 mice, cells were collected by centrifugation and heparanase activity was determined as described under ‘Materials and Methods’ (left panel). […]

Data set [1] has as its system LM2-4 human breast carcinoma cells. Put plainly: LM2-4 breast carcinoma experimental lung metastasis. The data set is classed as in vivo. The following applies: mAb 500 μg/mouse with the cells, lungs after 18 days. As to the method:
as §3, §4

B1: mAb 9E8: monoclonal IgM raised against KKDC peptide (Lys158-Asn171) of heparanase; VH SEQ ID NO: 7, VL SEQ ID NO: 8 (antibody)
VH: EVKLLESGGGLVQPGGSLKLSCAASGFDFSRYWMSWVRQAPGKGLEWIGEINPDSSTINYTPSLKDKFIISRDNAKNTLYLQMSKVRSEDTALYYCARRGYEGNYAMDYWGQGTSVTVSSESQSFPNVFPLVSCESPLSDKNLVAMGCLAR
VL: DIVMTQAAPSVPVTPGESVSISCRSSKSLLHSNGNTYLYWFLQRPGQSPQLLIYRMSNLASGVPDRFSGSGSGTAFTLRISRVEAEDVGVYYCMQHLEYPFTFGSGTKLEIKRADAAPTVSIFPPSSEQLTSGGASVVCFL
modifications: IgM constant regions
Consider B1, for which the cell invasion result with U87 glioma cells and in the data set on Cal-27 tongue carcinoma was “inhibitory effect” in each case. Besides, the “experimental lung metastasis (number of metastatic lesions)” value in the data set with Mouse B16 melanoma cells is reported as “inhibitory effect”. In the data set on lymphoma cells, the “lymphoma cell death (PI-positivity)” value is “do not elicit lymphoma cell death”. Besides, the “decrease in tumor burden (luciferase signal)” value with CAG myeloma cells was 2-3 fold. Moreover, the experimental lung metastasis entry in data set [1] is “inhibitory effect”.

The record behind these values is patent US11161912B2, “Heparanase-neutralizing monoclonal antibodies” (Technion Research & Development Foundation Limited, priority 2015, dated 2021).
